As a reminder, the Km is the concentration of substrate that gives half-maximal velocity. Usually Vmax stands for the top rate of the reaction or transport when substrate is in excess.

What all share (format): ADME
Data set [1] concerns the target T1, UDP-glucuronosyltransferase 1A10 (Homo sapiens, UniProt Q9HAW8).
T1 sequence (Q9HAW8 whole entry): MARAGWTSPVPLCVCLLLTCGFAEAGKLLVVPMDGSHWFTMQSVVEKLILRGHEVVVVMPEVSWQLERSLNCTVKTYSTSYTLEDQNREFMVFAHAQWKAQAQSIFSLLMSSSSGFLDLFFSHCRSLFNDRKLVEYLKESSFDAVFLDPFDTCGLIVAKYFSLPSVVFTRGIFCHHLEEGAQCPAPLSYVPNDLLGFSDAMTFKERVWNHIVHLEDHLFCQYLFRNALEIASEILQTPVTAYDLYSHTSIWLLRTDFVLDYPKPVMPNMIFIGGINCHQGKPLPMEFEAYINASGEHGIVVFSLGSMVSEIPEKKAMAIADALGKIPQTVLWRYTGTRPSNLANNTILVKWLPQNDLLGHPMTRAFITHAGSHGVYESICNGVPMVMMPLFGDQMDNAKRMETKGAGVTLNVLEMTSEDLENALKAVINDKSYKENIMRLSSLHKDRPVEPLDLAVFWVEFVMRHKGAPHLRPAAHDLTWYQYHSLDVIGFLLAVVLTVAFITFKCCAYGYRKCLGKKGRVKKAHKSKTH
Kind of data set: Drug level assessed as human recombinant UGT1A10-mediated glucuronidation treated with irilone incubated for 5 mins prior to UDPGA addition measured after 90 mins by HPLC-DAD analysis. As to conditions: recombinant enzyme, 1.5 h.

Data set [2] concerns the target T2, UDP-glucuronosyltransferase 1A7 (Homo sapiens, UniProt Q9HAW7).
T2 sequence (Q9HAW7 whole entry): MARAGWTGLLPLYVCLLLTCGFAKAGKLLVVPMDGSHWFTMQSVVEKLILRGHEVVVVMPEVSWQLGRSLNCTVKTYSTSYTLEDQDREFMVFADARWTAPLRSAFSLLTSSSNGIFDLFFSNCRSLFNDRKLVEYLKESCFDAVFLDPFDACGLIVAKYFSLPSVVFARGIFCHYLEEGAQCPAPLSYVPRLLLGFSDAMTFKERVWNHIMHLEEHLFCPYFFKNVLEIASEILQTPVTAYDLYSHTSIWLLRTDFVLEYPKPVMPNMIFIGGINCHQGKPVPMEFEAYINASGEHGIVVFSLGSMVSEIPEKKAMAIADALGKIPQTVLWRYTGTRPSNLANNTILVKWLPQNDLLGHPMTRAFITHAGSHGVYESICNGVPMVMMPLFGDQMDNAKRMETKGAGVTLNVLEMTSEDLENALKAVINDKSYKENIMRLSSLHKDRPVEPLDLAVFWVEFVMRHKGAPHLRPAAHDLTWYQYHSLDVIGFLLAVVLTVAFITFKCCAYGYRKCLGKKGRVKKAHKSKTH
The data set can be described thus: Drug level assessed as human recombinant UGT1A7-mediated glucuronidation treated with 25 uM irilone incubated for 5 mins prior to UDPGA addition measured after 90 mins by HPLC-DAD analysis. The conditions noted are these: recombinant enzyme, 1.5 h.

Data set [3] addresses T3, UDP-glucuronosyltransferase 1A1 (Homo sapiens, UniProt P22309).
T3 sequence (P22309 whole entry): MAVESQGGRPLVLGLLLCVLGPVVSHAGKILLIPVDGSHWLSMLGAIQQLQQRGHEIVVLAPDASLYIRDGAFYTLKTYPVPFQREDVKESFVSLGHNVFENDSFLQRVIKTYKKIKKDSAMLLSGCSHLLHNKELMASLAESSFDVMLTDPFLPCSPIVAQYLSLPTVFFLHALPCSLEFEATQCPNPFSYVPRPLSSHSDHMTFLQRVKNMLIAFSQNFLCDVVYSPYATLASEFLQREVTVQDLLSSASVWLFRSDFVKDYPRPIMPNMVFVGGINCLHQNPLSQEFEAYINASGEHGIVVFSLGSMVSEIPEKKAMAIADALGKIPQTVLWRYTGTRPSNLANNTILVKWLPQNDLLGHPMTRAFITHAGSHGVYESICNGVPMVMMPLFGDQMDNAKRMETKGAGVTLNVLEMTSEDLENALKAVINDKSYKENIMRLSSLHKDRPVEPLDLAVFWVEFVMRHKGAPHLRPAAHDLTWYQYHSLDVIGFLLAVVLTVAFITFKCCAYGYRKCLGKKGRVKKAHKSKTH
Kind of data set: Drug level assessed as human recombinant UGT1A1-mediated glucuronidation treated with 25 uM irilone incubated for 5 mins prior to UDPGA addition measured after 90 mins by HPLC-DAD analysis. The conditions noted are these: recombinant enzyme, 1.5 h.

Data set [4] concerns the target T4, UDP-glucuronosyltransferase 1A8 (Homo sapiens, UniProt Q9HAW9).
T4 sequence (Q9HAW9 whole entry): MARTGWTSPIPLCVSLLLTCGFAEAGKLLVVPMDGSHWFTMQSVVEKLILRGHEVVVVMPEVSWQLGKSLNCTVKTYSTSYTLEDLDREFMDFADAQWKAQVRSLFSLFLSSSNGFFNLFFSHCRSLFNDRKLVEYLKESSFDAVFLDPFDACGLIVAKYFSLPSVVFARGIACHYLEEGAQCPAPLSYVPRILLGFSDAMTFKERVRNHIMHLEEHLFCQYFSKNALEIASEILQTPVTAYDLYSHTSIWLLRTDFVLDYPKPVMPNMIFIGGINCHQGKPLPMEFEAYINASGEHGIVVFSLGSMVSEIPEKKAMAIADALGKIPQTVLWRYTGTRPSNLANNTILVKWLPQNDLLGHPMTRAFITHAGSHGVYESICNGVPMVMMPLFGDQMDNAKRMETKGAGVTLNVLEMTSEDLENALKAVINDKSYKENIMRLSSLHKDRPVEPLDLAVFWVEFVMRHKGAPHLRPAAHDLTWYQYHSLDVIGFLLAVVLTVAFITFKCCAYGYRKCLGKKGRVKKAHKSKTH
Kind of data set: Drug level assessed as human recombinant UGT1A8-mediated glucuronidation treated with 25 uM irilone incubated for 5 mins prior to UDPGA addition measured after 90 mins by HPLC-DAD analysis. As to conditions: recombinant enzyme, 1.5 h.

Substrate in data set [5]: O=c1c(-c2ccc(O)cc2)coc2cc3c(c(O)c12)OCO3
Kind of data set: Activity of human recombinant UGT1A7 assessed as IRI-O-5-monoglucuronide formation incubated for 5 mins prior to UDPGA addition measured after 90 mins by Eadie-Hoftsee plot analysis.

Substrate in data set [6]: O=c1c(-c2ccc(O)cc2)coc2cc3c(c(O)c12)OCO3
Kind of data set: Activity of human recombinant UGT1A10 assessed as IRI-O-4'-monoglucuronide formation incubated for 5 mins prior to UDPGA addition measured after 90 mins by Eadie-Hoftsee plot analysis.

Substrate in data set [7]: O=c1c(-c2ccc(O)cc2)coc2cc3c(c(O)c12)OCO3
The data set can be described thus: Activity of human recombinant UGT1A1 assessed as IRI-O-5-monoglucuronide formation incubated for 5 mins prior to UDPGA addition measured after 90 mins by Eadie-Hoftsee plot analysis.

Substrate in data set [8]: O=c1c(-c2ccc(O)cc2)coc2cc3c(c(O)c12)OCO3
Kind of data set: Activity of human recombinant UGT1A1 assessed as IRI-O-4'-monoglucuronide formation incubated for 5 mins prior to UDPGA addition measured after 90 mins by Eadie-Hoftsee plot analysis.

Substrate in data set [9]: O=c1c(-c2ccc(O)cc2)coc2cc3c(c(O)c12)OCO3
Kind of data set: Activity of human recombinant UGT1A9 assessed as IRI-O-5-monoglucuronide formation incubated for 5 mins prior to UDPGA addition measured after 90 mins by Eadie-Hoftsee plot analysis.

Substrate in data set [10]: O=c1c(-c2ccc(O)cc2)coc2cc3c(c(O)c12)OCO3
The data set can be described thus: Activity of human recombinant UGT1A8 assessed as IRI-O-5-monoglucuronide formation incubated for 5 mins prior to UDPGA addition measured after 90 mins by Eadie-Hoftsee plot analysis.

Substrate in data set [11]: O=c1c(-c2ccc(O)cc2)coc2cc3c(c(O)c12)OCO3
Kind of data set: Activity of human recombinant UGT1A8 assessed as IRI-O-4'-monoglucuronide formation incubated for 5 mins prior to UDPGA addition measured after 90 mins by Eadie-Hoftsee plot analysis.

With `COc1c2c(cc3occ(-c4ccc(O[C@@H]5O[C@H](C(=O)O)[C@@H](O)[C@H](O)[C@H]5O)cc4)c(=O)c13)OCO2`, in [1], the Drug metabolism result is recorded as “metabolite_detected”.

Turning to `O=C(O)[C@H]1O[C@@H](Oc2ccc(-c3coc4cc5c(c(O)c4c3=O)OCO5)cc2)[C@H](O)[C@@H](O)[C@@H]1O`, the Drug metabolism entry in data set [1], in data set [2], in [3] and in data set [4] was “metabolite_detected” throughout.

B1: UDP-glucuronosyltransferase 1A7 (Homo sapiens) (protein)
chain: MARAGWTGLLPLYVCLLLTCGFAKAGKLLVVPMDGSHWFTMQSVVEKLILRGHEVVVVMPEVSWQLGRSLNCTVKTYSTSYTLEDQDREFMVFADARWTAPLRSAFSLLTSSSNGIFDLFFSNCRSLFNDRKLVEYLKESCFDAVFLDPFDACGLIVAKYFSLPSVVFARGIFCHYLEEGAQCPAPLSYVPRLLLGFSDAMTFKERVWNHIMHLEEHLFCPYFFKNVLEIASEILQTPVTAYDLYSHTSIWLLRTDFVLEYPKPVMPNMIFIGGINCHQGKPVPMEFEAYINASGEHGIVVFSLGSMVSEIPEKKAMAIADALGKIPQTVLWRYTGTRPSNLANNTILVKWLPQNDLLGHPMTRAFITHAGSHGVYESICNGVPMVMMPLFGDQMDNAKRMETKGAGVTLNVLEMTSEDLENALKAVINDKSYKENIMRLSSLHKDRPVEPLDLAVFWVEFVMRHKGAPHLRPAAHDLTWYQYHSLDVIGFLLAVVLTVAFITFKCCAYGYRKCLGKKGRVKKAHKSKTH
Turning to B1, in data set [5], the Michaelis-Menten constant (Km) was found to be 9.4 µM and the maximal velocity (Vmax) came out at 4e-05 µmol/min/mg.

B2: UDP-glucuronosyltransferase 1A10 (Homo sapiens) (protein)
chain: MARAGWTSPVPLCVCLLLTCGFAEAGKLLVVPMDGSHWFTMQSVVEKLILRGHEVVVVMPEVSWQLERSLNCTVKTYSTSYTLEDQNREFMVFAHAQWKAQAQSIFSLLMSSSSGFLDLFFSHCRSLFNDRKLVEYLKESSFDAVFLDPFDTCGLIVAKYFSLPSVVFTRGIFCHHLEEGAQCPAPLSYVPNDLLGFSDAMTFKERVWNHIVHLEDHLFCQYLFRNALEIASEILQTPVTAYDLYSHTSIWLLRTDFVLDYPKPVMPNMIFIGGINCHQGKPLPMEFEAYINASGEHGIVVFSLGSMVSEIPEKKAMAIADALGKIPQTVLWRYTGTRPSNLANNTILVKWLPQNDLLGHPMTRAFITHAGSHGVYESICNGVPMVMMPLFGDQMDNAKRMETKGAGVTLNVLEMTSEDLENALKAVINDKSYKENIMRLSSLHKDRPVEPLDLAVFWVEFVMRHKGAPHLRPAAHDLTWYQYHSLDVIGFLLAVVLTVAFITFKCCAYGYRKCLGKKGRVKKAHKSKTH
B2: in data set [6], the Michaelis constant (Km) was found to be 10.3 µM and the maximum rate (Vmax) amounted to 0.00103 µmol/min/mg.

B3: UDP-glucuronosyltransferase 1A1 (Homo sapiens) (protein)
chain: MAVESQGGRPLVLGLLLCVLGPVVSHAGKILLIPVDGSHWLSMLGAIQQLQQRGHEIVVLAPDASLYIRDGAFYTLKTYPVPFQREDVKESFVSLGHNVFENDSFLQRVIKTYKKIKKDSAMLLSGCSHLLHNKELMASLAESSFDVMLTDPFLPCSPIVAQYLSLPTVFFLHALPCSLEFEATQCPNPFSYVPRPLSSHSDHMTFLQRVKNMLIAFSQNFLCDVVYSPYATLASEFLQREVTVQDLLSSASVWLFRSDFVKDYPRPIMPNMVFVGGINCLHQNPLSQEFEAYINASGEHGIVVFSLGSMVSEIPEKKAMAIADALGKIPQTVLWRYTGTRPSNLANNTILVKWLPQNDLLGHPMTRAFITHAGSHGVYESICNGVPMVMMPLFGDQMDNAKRMETKGAGVTLNVLEMTSEDLENALKAVINDKSYKENIMRLSSLHKDRPVEPLDLAVFWVEFVMRHKGAPHLRPAAHDLTWYQYHSLDVIGFLLAVVLTVAFITFKCCAYGYRKCLGKKGRVKKAHKSKTH
Take B3: in data set [7], the Km was found to be 24.6 µM and the Vmax came to 0.00067 µmol/min/mg. For the same molecule, in [8], the Km was found to be 32.9 µM and the Vmax came to 0.00014 µmol/min/mg.

B4: UDP-glucuronosyltransferase 1A9 (Homo sapiens) (protein)
chain: MACTGWTSPLPLCVCLLLTCGFAEAGKLLVVPMDGSHWFTMRSVVEKLILRGHEVVVVMPEVSWQLGRSLNCTVKTYSTSYTLEDLDREFKAFAHAQWKAQVRSIYSLLMGSYNDIFDLFFSNCRSLFKDKKLVEYLKESSFDAVFLDPFDNCGLIVAKYFSLPSVVFARGILCHYLEEGAQCPAPLSYVPRILLGFSDAMTFKERVRNHIMHLEEHLLCHRFFKNALEIASEILQTPVTEYDLYSHTSIWLLRTDFVLDYPKPVMPNMIFIGGINCHQGKPLPMEFEAYINASGEHGIVVFSLGSMVSEIPEKKAMAIADALGKIPQTVLWRYTGTRPSNLANNTILVKWLPQNDLLGHPMTRAFITHAGSHGVYESICNGVPMVMMPLFGDQMDNAKRMETKGAGVTLNVLEMTSEDLENALKAVINDKSYKENIMRLSSLHKDRPVEPLDLAVFWVEFVMRHKGAPHLRPAAHDLTWYQYHSLDVIGFLLAVVLTVAFITFKCCAYGYRKCLGKKGRVKKAHKSKTH
Turning to B4, in [9], the Michaelis constant (Km) came out at 5 µM and the maximum rate (Vmax) was 0.00027 µmol/min/mg.

B5: UDP-glucuronosyltransferase 1A8 (Homo sapiens) (protein)
chain: MARTGWTSPIPLCVSLLLTCGFAEAGKLLVVPMDGSHWFTMQSVVEKLILRGHEVVVVMPEVSWQLGKSLNCTVKTYSTSYTLEDLDREFMDFADAQWKAQVRSLFSLFLSSSNGFFNLFFSHCRSLFNDRKLVEYLKESSFDAVFLDPFDACGLIVAKYFSLPSVVFARGIACHYLEEGAQCPAPLSYVPRILLGFSDAMTFKERVRNHIMHLEEHLFCQYFSKNALEIASEILQTPVTAYDLYSHTSIWLLRTDFVLDYPKPVMPNMIFIGGINCHQGKPLPMEFEAYINASGEHGIVVFSLGSMVSEIPEKKAMAIADALGKIPQTVLWRYTGTRPSNLANNTILVKWLPQNDLLGHPMTRAFITHAGSHGVYESICNGVPMVMMPLFGDQMDNAKRMETKGAGVTLNVLEMTSEDLENALKAVINDKSYKENIMRLSSLHKDRPVEPLDLAVFWVEFVMRHKGAPHLRPAAHDLTWYQYHSLDVIGFLLAVVLTVAFITFKCCAYGYRKCLGKKGRVKKAHKSKTH
B5: in data set [10], the Michaelis-Menten constant (Km) was 70.9 µM and the maximum rate (Vmax) came out at 0.001 µmol/min/mg. Besides, in [11], the Km is 87.5 µM and the Vmax turned out to be 0.00054 µmol/min/mg.

The values above are taken from ChEMBL document CHEMBL3525955, “Glucuronidation of the red clover isoflavone irilone by liver microsomes from different species and human UDP-glucuronosyltransferases” (Drug Metab Dispos, 2011).
